Consider 2 proteins from PMC11098114 (Proceedings of the National Academy of Sciences of the …, 2024).

The data set deals with the molecule itself. Briefly: SEC. On the technique in general: Size exclusion chromatography separates by hydrodynamic size, large species first.

B1: 3×Ala-MxEnc (natural protein, Myxococcus xanthus)
chain: MPDFLGHAENPLREEEWARLNETVIQVARRSLVGRRILDIYGPLGAGVQTVPYDEFQGVSPGAVDIVGEQETAMVFTDARKFKTIPIIYKDFLLHWRDIEAARTHNMPLDVSAAAGAAALCAQQEDELIFYGDARLGYEGLMTANGRLTVPLGDWTSPGGGFQAIVEATRKLNEQGHFGPYAVVLSPRLYSQLHRIYEAAAVLEIETIRQLASDGVYQSNRLRGESGVVVSTGRENMDLAVSMDMVAAYLGASRMNHPFRVLEALLLRIKHPDAICTLEGAGATERR
With B1, the binding result is “binds”.

B2: 3×Asp-MxEnc (natural protein, Myxococcus xanthus)
chain: MPDFLGHAENPLREEEWARLNETVIQVARRSLVGRRILDIYGPLGAGVQTVPYDEFQGVSPGAVDIVGEQETAMVFTDARKFKTIPIIYKDFLLHWRDIEAARTHNMPLDVSAAAGAAALCAQQEDELIFYGDARLGYEGLMTANGRLTVPLGDWTSPGGGFQAIVEATRKLNEQGHFGPYAVVLSPRLYSQLHRIYEDDDVLEIETIRQLASDGVYQSNRLRGESGVVVSTGRENMDLAVSMDMVAAYLGASRMNHPFRVLEALLLRIKHPDAICTLEGAGATERR
On to B2, for which the binding result is recorded as “binds”.
